Assay [1] deals with EphA3-Fc (Mus musculus) (UniProt P29319). The following applies: cited from earlier work.
Assay [2] addresses EphA4 LBD (Homo sapiens) (UniProt P54764). As to the kind of experiment: SPR. The following applies: cited from earlier work.
The target in assay [3] is T1, zebrafish ephrinA5b extracellular domain (zefn-A5^ECD), Flag-His8-tagged (zebrafish (Danio rerio), UniProt P79728 21-204).
T1 construct: ephrin-A5b, zebrafish, extracellular domain, residues 21-204 of NCBI NP_571101.1; thrombin cleavage site between the tags and the protein (pK503.9 vector); also called Danio rerio efn-A5b; efn-A5b; not shown: Flag, N-terminal, kept; His8, N-terminal, kept
T1 sequence (looked up): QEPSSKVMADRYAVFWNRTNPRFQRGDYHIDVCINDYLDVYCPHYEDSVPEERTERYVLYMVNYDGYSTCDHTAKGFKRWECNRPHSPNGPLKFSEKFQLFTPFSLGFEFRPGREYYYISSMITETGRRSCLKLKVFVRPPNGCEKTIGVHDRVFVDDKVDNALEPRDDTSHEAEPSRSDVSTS
Put plainly: BLI; BLItz, zefn-A5^ECD (140 μM) immobilised on Ni-NTA biosensor; SEC buffer with 0.5% Tween-20; 2 min association, 3 min dissociation; Kd from plateau values, one-site total binding model. The following applies: both partners purified.

The target of assay [4] is T2, zebrafish GDNF family receptor alpha 1 extracellular domain (zGFRα1^ECD), Flag-His8-tagged (zebrafish (Danio rerio), UniProt Q98TT9 31-351).
T2 construct: GDNF family receptor alpha 1, zebrafish, extracellular domain, residues 31-351 of NCBI NP_571805.1; not shown: Flag, N-terminal, kept; His8, N-terminal, kept
T2 sequence (looked up): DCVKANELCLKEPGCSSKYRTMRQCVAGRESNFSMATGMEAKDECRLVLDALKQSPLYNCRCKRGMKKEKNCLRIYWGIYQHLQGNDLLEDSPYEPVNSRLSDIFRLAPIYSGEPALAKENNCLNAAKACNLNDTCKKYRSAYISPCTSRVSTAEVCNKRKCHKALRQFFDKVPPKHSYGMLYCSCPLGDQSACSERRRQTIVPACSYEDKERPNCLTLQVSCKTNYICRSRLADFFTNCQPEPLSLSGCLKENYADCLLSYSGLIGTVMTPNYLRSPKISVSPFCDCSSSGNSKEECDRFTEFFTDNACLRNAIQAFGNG
As to the kind of experiment: native gel or EMSA; Blue Native PAGE, 4-20% gradient gel, Coomassie-stained; purified proteins mixed and incubated 30 min at room temperature, run at 4 °C; zefn-A5^ECD 8 μM, molar ratio 2:1:1:1:1 (zefn-A5^ECD:zRET^ECD:zGDNF:zGFRα1^ECD:mEphA4^LBD); band of the ternary complex checked by LC-MS/MS. Particulars: both partners purified. In general terms: A gel shift assay detects complexes by their altered migration in electrophoresis.

The source of these data is PMC5995387, “Binding of EphrinA5 to RET receptor tyrosine kinase: An in vitro study” (PLoS ONE, 2018).

Where “and” joins values, the source holds several entries; their conditions need not be identical. Identical values can stand only once.

EphA4 LBD (Homo sapiens), sequence (P54764 30-209): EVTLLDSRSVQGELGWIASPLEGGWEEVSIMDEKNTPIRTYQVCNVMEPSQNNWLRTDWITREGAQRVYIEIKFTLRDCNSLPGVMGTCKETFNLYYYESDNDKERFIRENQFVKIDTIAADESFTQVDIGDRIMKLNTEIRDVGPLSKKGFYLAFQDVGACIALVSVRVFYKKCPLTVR
EphA3-Fc (Mus musculus), sequence (P29319 21-540): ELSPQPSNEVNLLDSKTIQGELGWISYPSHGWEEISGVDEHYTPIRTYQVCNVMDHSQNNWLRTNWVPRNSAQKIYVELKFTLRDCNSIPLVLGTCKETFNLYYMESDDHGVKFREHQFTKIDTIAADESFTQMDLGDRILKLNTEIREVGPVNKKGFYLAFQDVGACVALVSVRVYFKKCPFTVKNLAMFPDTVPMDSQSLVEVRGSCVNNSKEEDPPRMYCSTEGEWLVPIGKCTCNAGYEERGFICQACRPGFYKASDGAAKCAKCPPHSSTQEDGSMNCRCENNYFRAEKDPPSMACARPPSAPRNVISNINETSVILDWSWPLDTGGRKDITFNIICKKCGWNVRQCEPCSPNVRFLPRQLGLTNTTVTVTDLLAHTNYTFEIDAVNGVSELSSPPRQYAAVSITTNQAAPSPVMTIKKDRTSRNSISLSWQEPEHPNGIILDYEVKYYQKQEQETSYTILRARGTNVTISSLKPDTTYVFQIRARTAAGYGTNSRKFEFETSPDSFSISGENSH

Take ephrinA5 ECD (from UniProt O08543): the Kd (in general, the constant that tells how readily two partners part at equilibrium) in assay [1] was 8 nM.

Consider ephrinA5 ECD (from UniProt P52803), for which, in assay [2], the Kd was 360 nM.

B1: mouse EphA4 ligand-binding domain with C-terminal human IgG1 hinge and Fc (mEphA4^LBD) (Fc fusion, mouse (Mus musculus), UniProt Q03137-1 29-210, looked up)
chain: NEVTLLDSRSVQGELGWIASPLEGGWEEVSIMDEKNTPIRTYQVCNVMEASQNNWLRTDWITREGAQRVYIEIKFTLRDCNSLPGVMGTCKETFNLYYYESDNDKERFIRESQFGKIDTIAADESFTQVDIGDRIMKLNTEIRDVGPLSKKGFYLAFQDVGACIALVSVRVFYKKCPLTVRN
notes: concentrations were calculated for the monomeric form. pMA152a vector; also called Mus musculus EphA4; source: Hi5 insect cells, purified (Protein-A Sepharose); not shown: Fc (human IgG1, with hinge region), C-terminal, kept
As to B1, in assay [3], the Kd came to 180 ± 10 nM.

B2: mature zebrafish glial cell-derived neurotrophic factor (zGDNF), N-terminal Flag tag (ligand, zebrafish (Danio rerio), UniProt Q98TU0 90-235, looked up)
chain: SSDVEPQMKRDRVRQKAAANTEKSGGRGRGERKRSRGRARSRDDRVKGQGRGCLLKEIHLNVTDLDLGYRTKEELIFRYCSGPCHDAETNYDKILNNLTHNKKLDKDTPSRTCCRPIAFDDDISFLDDSLEYHTLKKHSAKKCACV
notes: GDNF, zebrafish, mature zGDNF, residues 90-236 of NCBI NP_571807.1; Written as zGDNF2 (dimer) in the complexes; concentrations were calculated for the monomeric form; also called zGDNF2; source: Hi5 insect cells (baculovirus), secreted, purified as previously described [24]; not shown: Flag, N-terminal, kept
B2: the stoichiometry N (in general, a count of units in the complex or per binding partner) in assay [4] was 1 zGDNF per zGFRα1^ECD (2:2, binary complex) and ~2 zGDNF per zGFRα1^ECD (ternary complex with zRET^ECD).

B3: zebrafish RET extracellular domain (zRET^ECD), Flag-His8-tagged (domain or fragment, zebrafish (Danio rerio), UniProt A8E7C6 22-626, looked up)
chain: GLYFPQRLYTENIYVGQQQGSPLLQVISMREFPTERPYFFLCSHRDAFTSWFHIDEASGVLYLNKTLEWSDFSSLRSGSVRSPKDLTLKVGVSSTPPMKVMCTILPTVEVKLSFINDTAPSCGQVELSTLCFPEKISNPHITENREPGALRQLRRFTHMSICPNYTISYGVVAGSSVPFAVDDSTSELVVTAQVDREEKEVYHLDIVCMVRTERNLEEVFRSLHVNIYDEDDNSPYVNGTDTEDVLVEFDRSEGTVFGTLFVYDRDTTPVYPTNQVQNKLVGTLMTNDSWIKNNFAIEHKFREEKAIFGNVRGTVHEYKLKLSQNLSVTEQRSFLLGYLVNDTTFPGPEGTVLLHFNVTVLPVPIRFSNVTYSFTVSQKATTYSQIGKVCVENCQKFKGIDVTYQLEIVDRNITAEAQSCYWAVSLAQNPNDNTGVLYVNDTKVLRRPECQELEYVVIAQEQQNKLQAKTQLTVSFQGEADSLKTDEPRFPACAEKRQRGDCEATRGLGAPTGRCQWRQGRDKGISKRYSTCSPNLGTCPDGYCDAIESKNISICPQDCSSEAIIGGYERDLYGIKAGHGTCYCFEGKCFCERDEPEDDICNDMC
notes: RET receptor tyrosine kinase, zebrafish, extracellular domain, residues 22-626 of NCBI NP_858048.2; thrombin cleavage site after the tags (pK503.9 vector); A mixture of monomer, dimer and some higher oligomers by native PAGE; not shown: Flag, N-terminal, kept; His8, N-terminal, kept
On to B3, for which, in assay [4], the “stoichiometry N” value was ~1 zRET^ECD per zGFRα1^ECD (ternary complex with zGDNF).
